Measured values reported in patent US7786071B2 (priority 2003, dated 2010).
Like-named read-outs stand apart in the source and are kept apart here.

How the values were obtained:
[1] = type: biochemical
[2] = type: biochemical; remark: listed apart in the source
[3] = type: biochemical; conditions: read-out: 2NA hydrolysis KM
[4] = type: biochemical; conditions: read-out: DEPCyC hydrolysis KM
[5] = read-out: Paraxon hydrolysis KM

B1: G2D6: second-round directly evolved PON1 variant, thioredoxin-fused; SEQ ID NO: 27 (DNA), 59 (protein) (protein)
chain: MAKLTALTLLGLGLALFDRQKSSFQTRFNVHREVTPVELPNCNLVKGIDNGSEDLEILPNGLAFISSGLKYPGIMSFDPDKSGKILLMDLNEEDPVVLELGITGSTFDLSSFNPHGISTFTDEDNTVYLLVVNHPDSSSTVEVFKFQEKERSLLHLKTIRHKLLPSVNDIVAVGPESFYATNDHYFADPYLKSWEMHLGLAWSFVTYYSPNDVRVVAEGFDFANGINISPDGKYVYIAELLAHKIHVYEKHANWTLTPLKSLDFNTLVDNISVDPVTGDLWVGCHPNGMRIFYYDPENPPGSEVLRIQDILSKEPKVTVVYAENGTVLQGSTVAAVYKGKLLIGTVFHKALYCDL
modifications: thioredoxin fusion; In vitro evolved PON variant G2D6
[1]; pH 8
  kcat(Paraoxon): 0.98 s⁻¹
[1]; pH 8, read-out: KM(Paraoxon)
  Km: 100 µM
[2]; pH 8
  kcat (PheAc): 562 s⁻¹
[2]; pH 8, read-out: KM(PheAc)
  Km: 320 µM

B2: G1B11: first generation trx-rPON3 variant; SEQ ID NO: 44, 50 (protein)
chain: MAKLLLLTLLGACLALIGERLLNFRERVSTTREIKATEPQNCHLIEGLENGSEDIDILPSGLAFISSGLKYPGMPNFAPDEPGKIFLIDMNEQNPRAQALEISGGFDKELFNPHGISTFIDKDHTVYLYVVNHPNMDSTVEIFKFEEQQHSLIHLKTLKHELLKSVNDIVVLGPEQFYATRDHYFTNYVLALLKMFLDLRWTSVLFYSPKEVKVVAKGFSSANGITVSLDKKYVYVADATAKNVHVMEKHDNWDLTELKVIQLGTLVDNLTVDPATGDILAGCHPNPMKLLIYNPEDPPGSEVLRIQDVLSEKPRVSTVYANNGSVLQGSTVASVYQGKILIGTIFHKTLYCVL
modifications: thioredoxin fusion; In vitro evolved PON variant G1B11
[3]
  Km: 180 µM
[1]; [5]
  Km: 1100 µM

B3: G3A5: third generation trx-rPON3 variant; SEQ ID NO: 46, 52 (protein)
chain: MGELLLLTLLGASLAFVGEMFLAFRERVNASREVEPVEPQNCVLIEGLENGSEDIDILPNGLAFISSGLKYPGMPNFAPDEPGKIFLMDLNEQNPRAQELEISNGFEKESFNPHGISTFIDKDHTVYLYVVNHPNMDSTVEIFKFEERQRSLVHLKTIKHELLKSVNDIVVLGPEQFYATRDRYFTNYVLALLEMILDPHWTSVVFYSPKEVKVVAQGFSSANGITVSLDKKYVYVADATAKNVHVMEKHDNWDLTPVKVIQLGTLVDNLSVDPATGDILAGCHPNPMKLLNYNPEDPPGSEVLRIRNVLSEKPRVSTVYTNDGSVLQGTSVASVYQGKILIGTIFHKTLYCDL
modifications: thioredoxin fusion; In vitro evolved PON variant G3A5
[1]; [5]
  Km: 510 µM

B4: G1A7: first generation trx-rPON3 variant; SEQ ID NO: 43, 49 (protein)
chain: MAKLLLLTLLGVGLSLVGERLLAFRNSFGAVQELEPVEPQNCHLIEGLENGSEDIDILPSGLAFISSGLKYPGMPAFAPDKPGRIFLMDLNEQNPEAQALEISGGLDQESLNPHGISTFIDKDSTAYLYVVNHPNMDSTVEIFKFEEQQRSLVHMKTIKHELLKSVNNIVVLGPEQFYATRDHYFTNSLLSFFEMILDPHWTSVVFYSPREVKVVAKGFSSANGITVSLDKKYVYVADATAKNVHVMEKHDNWDLTELKVIHLDTLVDNLTVDPATGDILAGCHPNPMKLLIYNPEDPPGSEVLRIQDSLSDKPRVSTLYANNGSVLQGTSVASVYHGKILIGTIFHKTLYCDL
modifications: thioredoxin fusion; In vitro evolved PON variant G1A7
[3]
  Km: 160 µM
[1]; [5]
  Km: 2500 µM

B5: G3G3: third generation trx-rPON3 variant; SEQ ID NO: 47, 53 (protein)
chain: MAKLLLLTLLGASLAFVGERLLAFRDSFGAVQELEPVEPQNCVLIEGLENGSEDIDILPSGLAFISSGLKYPGMPNFAPDEPGKIFLIDMNEKNPRAQALEISGGFDKESFNPHGISTFIDKDHTVYLYVVNHPNMDSTVEVFKFEEQQHSLIHLKTIKHELLKSVNDIVVLGPEQFYATRDHYFTNSLLSFFEMILDLRWTSVLFYSPREVKVVAKGFSSANGITVSLDKKYVYVADVAAKNIHIMEKHDNWDLTELKVIHLDTLVDNLTVDPATGDILAGCHPNPMKLLNYNPEDPPGSEVLRIQNVLSEKPRVSTVYANNGSVLQGTSVASVYHGKILIGTIFHKTLYCDL
modifications: thioredoxin fusion; In vitro evolved PON variant G3G3
[3]
  Km: 650 µM

B6: G2E6: second-round directly evolved PON1 variant whose 3D structure was solved; SEQ ID NO: 28 (DNA), 60 (protein); 'wt' of Table 12 (protein)
chain: MAKLTALTLLGMGLALFDRQKSSFQTRFNVHREVTPVELPNCNLVKGIDNGSEDLEILPNGLAFISSGLKYPGIMSFDPDKSGKILLMDLNEKEPAVSELEIIGNTLDISSFNPHGISTFIDDDNTVYLLVVNHPGSSSTVEVFKFQEEEKSLLHLKTIRHKLLPSVNDIVAVGPEHFYATNDHYFIDPYLKSWEMHLGLAWSFVTYYSPNDVRVVAEGFDFANGINISPDGKYVYIAELLAHKIHVYEKHANWTLTPLRVLSFDTLVDNISVDPVTGDLWVGCHPNGMRIFFYDAENPPGSEVLRIQDILSEEPKVTVVYAENGTVLQGSTVAAVYKGKLLIGTVFHKALYCDL
modifications: In vitro evolved PON variant G2E6
[1]; pH 8
  kcat(Paraoxon): 0.87 s⁻¹
[1]; pH 8, read-out: KM(Paraoxon)
  Km: 89 µM
[2]; pH 8
  kcat (PheAc): 965 s⁻¹
[2]; pH 8, read-out: KM(PheAc)
  Km: 430 µM

B7: G3C9.10: G3C9 variant with mutations L69V and E218D; SEQ ID NO: 62, 63 (protein)
chain: MAKLTALTLLGLGLALFDGQKSSFQTRFNVHREVTPVELPNCNLVKGVDNGSEDLEILPNGLAFISSGVKYPGIMSFDPDKSGKILLMDLNEEDPVVLELGITGNTLDISSFNPHGISTFTDEDNTVYLLVVNHPDSSSTVEVFKFQEEEKSLLHLKTIRHKLLPSVNDIVAVGPEHFYATNDHYFADPYLKSWEMHLGLAWSFVTYYSPNDVRVVADGFDFANGINISPDGKYVYIAELLAHKIHVYEKHANWTLTPLKSLDFDTLVDNISVDPVTGDLWVGCHPNGMRIFYYDPKNPPGSEVLRIQDILSEEPKVTVVYAENGTVLQGSTVAAVYKGKLLIGTVFHKALYCEL
modifications: In vitro evolved PON variant G3C9.10
[4]
  Km: 50 µM
[2]; read-out: Phenylacetate hydrolysis KM
  Km: 760 µM

B8: RabPON3: wild-type rabbit PON3 expressed in E. coli fused to thioredoxin; SEQ ID NO: 30, 41 (protein, listed as Oryctolagus cuniculus)
chain: MAKLLLLTLLGASLAFVGERLLAFRNSFGAVQELEPVEPQNCVLIEGLENGSEDIDILPSGLAFISSGLKYPGMPNFAPDEPGKIFLIDMNEKNPRAQELEISNGFEKESFNPHGISTFIDKDHTVYLYVVNHPHMKSTVEIFKFEEQQRSLVHLKTIKHELLKSVNNIVVLGPEQFYATRDHYFTNYVLALLEMFLDLHWTSVLFYSPKEVKVVAKGFSSANGITVSLDKKYVYVADATAKNVHVMEKHDNWDLTELKVIHLDTLVDNLSVDPATGDILAGCHPNGMKLLNYNPEDPPGSEVLRIQNVLSEKPRVSTVYTNDGSVLQGSTVASVYQGKILIGTIFHKTLYCVL
modifications: thioredoxin fusion
[3]
  Km: 211 µM
[1]; [5]
  Km: 1300 µM

B9: G1C4: first-round directly evolved PON1 variant, thioredoxin-fused; SEQ ID NO: 26 (DNA), 58 (protein) (protein)
chain: MAKLLALTLVGLGLALFDGQKSSFQTRFNVHREVTPVELPNCNLVKGIETGAEDLEILPNGLAFISSGLKYPGIMSFDPDKSGKILLMDLNEEDPVVLELGITGSTFDLSSFNPHGISTFTDEDNTVYLLVVNHPDSSSTVEVFKFQEKEKSLLHLKTIRHKLLPSVNDIVAVGPEHFYATNDHYFIDPYLKSWEMHLGLAWSFVTYYSPNDVRVVAEGFDFANGINISPDGKYVYIAELLAHKIHVYEKHANWTLTPLKSLDFNTLVDNISVDPVTGDLWVGCHPNGMRIFYYDPKNPPASEVLRIQDILSEDPKITVVYAENGTVLQGTTVASVYKGKLLIGTVFHKALYCDL
modifications: thioredoxin-fused; In vitro evolved PON variant G1C4
[1]; pH 8
  kcat(Paraoxon): 0.54 s⁻¹
[1]; pH 8, read-out: KM(Paraoxon)
  Km: 120 µM
[2]; pH 8
  kcat (PheAc): 552 s⁻¹
[2]; pH 8, read-out: KM(PheAc)
  Km: 540 µM

B10: G3H9: third generation trx-rPON3 variant; SEQ ID NO: 48, 54 (protein)
chain: MAKLLLLTLLGVGLSLVGERLLAFRNSFGAVQELESVEPQNCVLIEGLENGSEDIDILPSGLAFISSGLKYPGMPNFAPDEPGKIFLIDMNEKNPRAQELKISNGFEKESFNPHGISTFIDKDHTVYLYVVNHPNMDSTVEIFKFEEQQRSLVHLKTIKHELLKSVNDIVVLGPEQFYATRDHYFTNSLLSFFEMILDLRWTSVVFYSPKEVKVVAKGFSSANGITVSLDKKYVYVADATAKNVHVMEKHDNWDLTPVKVIQLGTLVDNLTVDPATGDILAGCHPNPMKLLNYNPEDPPGSEVLRIQNVLSEKPRVSTVYTNDGSVLQGTSVASVYQGKILIGTIFHKALYCDL
modifications: thioredoxin fusion; In vitro evolved PON variant G3H9
[1]; [5]
  Km: 800 µM

B11: G2C2: second-generation trx-rPON3 variant; SEQ ID NO: 45, 51 (protein)
chain: MAKLLLLTLLGVGLSLVGERLLAFRNSFGAVQELEPVEPQNCVLIEGLENGSEDIDILPSGLAFISTGLKYPGMPNFAPDEPGKIFLMDLNEQNPRAQALEISGGFDKELFNPHGISTFIDKDNTVYLYVVNHPHMESTVEIFKFEEQQHSLIHLKTIKHELLKSVNDIVVLGPEQFYATRDHYFTNYVLARLEMILDLRWTYVLFYSPREVKVVAKGFSSANGITVSLDKKYVYVADATAKNVHVMEKHDNWDLTQLKVIQLGTLVDNLSVDPATGDILAGCHPNPMKLLNYNPEDPPGSEVLRIQNVLSEKPRVSTVYTNDGSVLQGTSVASVYQGKILIGTIFHKALHCDL
modifications: thioredoxin fusion; In vitro evolved PON variant G2C2
[3]
  Km: 260 µM
[1]; [5]
  Km: 800 µM
